In experiment [1] the target is T1, α1AAR (Homo sapiens, UniProt P35348).
T1 sequence (P35348 1-370): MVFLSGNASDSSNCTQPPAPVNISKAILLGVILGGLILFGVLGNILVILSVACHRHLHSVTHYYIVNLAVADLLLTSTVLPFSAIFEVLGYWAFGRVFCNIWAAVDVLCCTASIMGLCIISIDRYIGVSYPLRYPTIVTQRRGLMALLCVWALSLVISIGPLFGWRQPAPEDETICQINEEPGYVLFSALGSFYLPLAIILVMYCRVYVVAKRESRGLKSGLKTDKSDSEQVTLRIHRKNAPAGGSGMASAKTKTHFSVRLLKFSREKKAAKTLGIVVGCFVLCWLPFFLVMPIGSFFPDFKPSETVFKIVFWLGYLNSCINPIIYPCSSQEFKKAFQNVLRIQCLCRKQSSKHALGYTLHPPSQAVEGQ
The experiment is described as follows: [3H]prazosin radioligand binding, Sf9 membranes.
Protocol: After centrifugation, the pellet was homogenized in binding buffer and used as the membrane fraction in binding assays. […] Receptors were incubated for 1 h at room temperature with various concentrations of ligand in a total volume of 100 µl. After the reaction, the mixture was trapped on Whatman GF/B glass filters. Bound and free radioligands were separated by washing with ice-cold binding buffer. Radioactivity was measured on a MicroBeta2 liquid scintillation counter (PerkinElmer).

Experiment [2] deals with T2, α1AAR (Homo sapiens, UniProt P35348).
T2 sequence (P35348 1-466): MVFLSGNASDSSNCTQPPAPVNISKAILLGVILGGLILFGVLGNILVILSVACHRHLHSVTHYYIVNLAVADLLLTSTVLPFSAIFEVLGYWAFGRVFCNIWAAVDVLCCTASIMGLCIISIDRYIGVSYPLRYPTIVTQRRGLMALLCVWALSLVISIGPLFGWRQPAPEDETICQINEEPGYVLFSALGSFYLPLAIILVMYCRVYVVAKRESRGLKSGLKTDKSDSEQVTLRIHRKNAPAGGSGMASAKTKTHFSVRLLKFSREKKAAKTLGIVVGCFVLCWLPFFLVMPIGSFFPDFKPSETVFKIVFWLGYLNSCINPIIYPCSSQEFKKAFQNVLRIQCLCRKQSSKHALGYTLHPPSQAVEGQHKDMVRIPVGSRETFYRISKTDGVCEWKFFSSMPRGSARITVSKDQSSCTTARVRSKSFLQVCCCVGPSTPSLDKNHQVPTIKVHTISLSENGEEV

In experiment [3] the target is T2, α1AAR. The experiment in a line: Glo-sensor cAMP signaling assay with engineered Gsq protein in HEK293T cells.
Protocol: In brief, pGloSensor™−22F plasmid, receptor plasmid, and Gsq plasmid were transfected into HEK293T cells. At 24 h after transfection, the cells were switched into a CO2-Independent Medium (Gibco) and incubated with GloSensor^TM cAMP reagent. The mixture was then transferred to a 96-well white plate. The 96-well plate is placed at 37 °C in the dark for 1 h, then placed at room temperature in the dark for 1 h before use. […] The result curves were calculated and fitted by GraphPad Prism 9.

As usually defined, the pKi is −log10 of the Ki, conventionally taken in molar units. One may read the Ki as the dissociation constant of the complex between target and ligand, obtained from inhibition or displacement. The low end stands for tighter binding, the high end for weaker binding.

“And” between values parts separate entries of the source, which are not always exact repeats. Equal entries are not always repeated.

B1: Nb29: synthetic nanobody (single domain antibody) that binds the extracellular vestibule of α1AAR, preferentially oxymetazoline-bound (antibody, V domains shown)
VH: QVQLQESGGGLVQAGGSLRLSCAASGNISAHWKMGWYRQAPGKEREFVAGIGYANTNYADSVKGRFTISRDNAKNTVYLQMNSLKPEDTAVYYCAAYSYYRDHSYWGQGTQVTVSS
As to B1, the “[3H]prazosin binding” value was 69.5661% and 61.694% and 66.6796% in the experiment with α1AAR [1] (Nb29 Log[M] -4); 88.6049% and 105.399% and 83.0653% in the experiment with α1AAR [1] (Nb29 Log[M] -5); 111.871% and 107.935% in the experiment with α1AAR [1] (Nb29 Log[M] -6); 113.212% and 110.763% and 99.0136% with α1AAR [1] (Nb29 Log[M] -7); 94.5235% and 106.273% and 100.209% with α1AAR [1] (Nb29 Log[M] -8); 103.737% and 106.273% in the experiment with α1AAR [1] (Nb29 Log[M] -9). Moreover, in the experiment with α1AAR [1] (Nb29 Log[M] -10), the “[3H]prazosin binding” value was 99.4509% and 97.7015% and 89.1005%. Moreover, the pKi with α1AAR [1] (Nb29 as competitor) was 4.39 ± 0.40. The molecule further gave a Ki with α1AAR [2] of 4.9 µM. The “agonist activity on its own” value in the experiment with α1AAR [3] is given as “no agonist activity”. In the experiment with α1AAR [3], the “effect on maximum efficacy of α1AAR activation” value is “slightly reduces”. In addition, the “α1AAR activation (Noradrenaline %)” value in the experiment with α1AAR [3] (Nb29 alone Log[M] -4) was 8.574% and 8.426% and 7.756%; with α1AAR [3] (Nb29 alone Log[M] -5), 10.7076% and 10.0868% and 10.3298%; with α1AAR [3] (Nb29 alone Log[M] -6), 8.0538% and 8.0467% and 7.523%; with α1AAR [3] (Nb29 alone Log[M] -7), 5.836% and 5.21% and 5.469%; with α1AAR [3] (Nb29 alone Log[M] -8), 4.832% and 4.868% and 5.077%; with α1AAR [3] (Nb29 alone Log[M] -9), 4.7489% and 4.768% and 4.504%. Moreover, the “α1AAR activation (Noradrenaline %)” value was 4.612% and 4.823% and 4.852% with α1AAR [3] (Nb29 alone Log[M] -10); 4.776% and 4.958% and 4.729% in the experiment with α1AAR [3] (Nb29 alone Log[M] -11).

The values are drawn from PMC10282093, “Structural basis of α1A-adrenergic receptor activation and recognition by an extracellular nanobody” (Nature Communications, 2023).
